From patent publication US20150104448A1 (TRUE NORTH THERAPEUTICS, published 2015)

Experiments:
C2 = target: T1, C2; assay: ELISA, target proteins immobilized on micro-titer plates
T1 construct: member of group m5; also called complement C2
T1 chain: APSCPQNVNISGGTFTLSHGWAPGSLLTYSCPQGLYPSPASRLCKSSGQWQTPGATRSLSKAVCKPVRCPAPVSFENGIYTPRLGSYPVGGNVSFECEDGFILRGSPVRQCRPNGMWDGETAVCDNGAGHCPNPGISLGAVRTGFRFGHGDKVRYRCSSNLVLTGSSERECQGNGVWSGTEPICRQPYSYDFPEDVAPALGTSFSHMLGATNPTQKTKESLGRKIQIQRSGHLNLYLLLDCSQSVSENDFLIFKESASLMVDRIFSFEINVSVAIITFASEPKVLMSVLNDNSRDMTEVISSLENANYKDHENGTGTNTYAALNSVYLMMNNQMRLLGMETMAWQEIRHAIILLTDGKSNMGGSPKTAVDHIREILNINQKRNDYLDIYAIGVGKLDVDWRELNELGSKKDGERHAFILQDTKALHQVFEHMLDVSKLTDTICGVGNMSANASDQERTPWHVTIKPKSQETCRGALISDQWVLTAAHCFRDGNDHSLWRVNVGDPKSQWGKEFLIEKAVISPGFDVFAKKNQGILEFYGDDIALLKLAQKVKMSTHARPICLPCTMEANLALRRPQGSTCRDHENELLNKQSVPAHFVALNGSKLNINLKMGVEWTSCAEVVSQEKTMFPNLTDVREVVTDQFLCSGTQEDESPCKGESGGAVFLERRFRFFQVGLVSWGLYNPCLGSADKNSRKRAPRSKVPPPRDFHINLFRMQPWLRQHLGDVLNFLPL
Protocol: (§1) To determine whether IPN003 could bind other components of the complement cascade, ELISA assays were performed with target proteins immobilized on micro-titer plates.

C1r = target: T2, C1r; assay: as above
T2 construct: member of group m5; also called complement C1r
T2 chain: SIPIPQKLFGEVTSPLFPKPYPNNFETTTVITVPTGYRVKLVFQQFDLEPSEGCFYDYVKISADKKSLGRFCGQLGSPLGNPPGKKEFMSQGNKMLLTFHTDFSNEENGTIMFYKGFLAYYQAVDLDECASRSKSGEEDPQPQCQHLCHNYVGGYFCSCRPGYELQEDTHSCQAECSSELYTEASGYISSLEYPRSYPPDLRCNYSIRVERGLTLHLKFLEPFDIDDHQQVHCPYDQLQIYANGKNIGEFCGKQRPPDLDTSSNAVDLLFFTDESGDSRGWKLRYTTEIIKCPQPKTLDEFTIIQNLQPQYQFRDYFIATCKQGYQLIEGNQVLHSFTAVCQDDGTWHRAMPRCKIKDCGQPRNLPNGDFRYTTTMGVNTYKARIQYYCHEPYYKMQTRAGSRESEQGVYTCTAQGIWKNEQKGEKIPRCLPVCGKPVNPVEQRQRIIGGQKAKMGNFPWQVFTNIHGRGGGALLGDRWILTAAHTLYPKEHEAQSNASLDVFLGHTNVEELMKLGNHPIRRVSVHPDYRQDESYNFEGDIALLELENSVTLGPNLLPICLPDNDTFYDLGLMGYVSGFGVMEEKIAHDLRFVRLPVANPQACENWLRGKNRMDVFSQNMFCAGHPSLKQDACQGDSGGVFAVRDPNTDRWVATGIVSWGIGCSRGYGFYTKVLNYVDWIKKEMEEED
Protocol: as §1

[1] = target: T3, purified human activated C1s protein, two-chain form (Homo sapiens, UniProt P09871 16-688); assay: as above
T3 construct: Also used here for C1s acting in human serum assays; also called human C1s; active C1s
T3 sequence: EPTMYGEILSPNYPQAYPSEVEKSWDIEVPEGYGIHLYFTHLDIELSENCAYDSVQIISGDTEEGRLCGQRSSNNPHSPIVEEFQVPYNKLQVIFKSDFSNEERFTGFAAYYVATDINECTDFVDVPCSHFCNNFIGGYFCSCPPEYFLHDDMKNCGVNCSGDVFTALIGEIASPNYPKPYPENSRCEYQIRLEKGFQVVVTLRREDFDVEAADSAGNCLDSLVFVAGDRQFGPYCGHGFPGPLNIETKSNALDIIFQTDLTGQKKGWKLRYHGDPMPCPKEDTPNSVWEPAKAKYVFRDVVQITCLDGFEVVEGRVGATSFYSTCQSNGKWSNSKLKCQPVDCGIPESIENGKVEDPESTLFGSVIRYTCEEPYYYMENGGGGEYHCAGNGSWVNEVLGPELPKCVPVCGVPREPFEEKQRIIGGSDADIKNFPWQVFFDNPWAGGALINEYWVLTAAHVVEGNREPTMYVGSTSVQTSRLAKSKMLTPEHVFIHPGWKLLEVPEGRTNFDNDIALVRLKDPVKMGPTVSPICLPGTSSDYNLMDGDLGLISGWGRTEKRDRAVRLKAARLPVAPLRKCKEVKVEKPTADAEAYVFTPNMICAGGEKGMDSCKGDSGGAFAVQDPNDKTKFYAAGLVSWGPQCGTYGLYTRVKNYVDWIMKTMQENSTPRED
Protocol: as §1

[2] = target: T3, purified human activated C1s protein, …; assay: kinetic binding measurement, method not stated; Table 4, Active-C1s
Inactive-C1s = target: T4, Inactive-C1s (Homo sapiens, UniProt P09871); assay: kinetic binding measurement, method not stated; Table 4, Inactive-C1s
T4 construct: proenzyme (pro-C1s); also called pro-C1s
T4 sequence (single chain, looked up): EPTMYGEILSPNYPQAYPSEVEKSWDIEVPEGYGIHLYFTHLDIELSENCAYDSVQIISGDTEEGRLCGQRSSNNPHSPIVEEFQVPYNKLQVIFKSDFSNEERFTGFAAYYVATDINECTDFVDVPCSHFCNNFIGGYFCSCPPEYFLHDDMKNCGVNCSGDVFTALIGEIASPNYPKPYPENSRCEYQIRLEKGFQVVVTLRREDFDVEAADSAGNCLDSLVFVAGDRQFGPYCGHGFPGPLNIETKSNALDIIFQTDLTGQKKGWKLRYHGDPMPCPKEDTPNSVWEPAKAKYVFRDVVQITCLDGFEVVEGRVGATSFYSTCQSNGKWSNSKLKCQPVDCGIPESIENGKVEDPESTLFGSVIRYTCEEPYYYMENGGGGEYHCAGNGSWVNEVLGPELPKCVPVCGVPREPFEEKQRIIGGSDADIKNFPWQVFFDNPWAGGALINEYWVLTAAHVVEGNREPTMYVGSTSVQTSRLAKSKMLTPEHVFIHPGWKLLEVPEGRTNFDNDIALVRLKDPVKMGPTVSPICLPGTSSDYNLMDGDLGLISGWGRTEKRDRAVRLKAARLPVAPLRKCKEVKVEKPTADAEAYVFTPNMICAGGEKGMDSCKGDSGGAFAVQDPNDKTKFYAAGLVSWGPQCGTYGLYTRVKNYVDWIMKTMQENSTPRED

[3] = target: T3, purified human activated C1s protein, …; assay: kinetic binding measurement, method not stated; kinetic measurement, native human C1s
purified rat C1s = target: T5, purified rat C1s (rat, UniProt Q6P6T1 16-688, limits assumed); assay: ELISA, purified rat C1s immobilized on micro-titer plates, increasing dilutions of antibody
T5 construct: also called rat complement C1s protein
T5 sequence (looked up): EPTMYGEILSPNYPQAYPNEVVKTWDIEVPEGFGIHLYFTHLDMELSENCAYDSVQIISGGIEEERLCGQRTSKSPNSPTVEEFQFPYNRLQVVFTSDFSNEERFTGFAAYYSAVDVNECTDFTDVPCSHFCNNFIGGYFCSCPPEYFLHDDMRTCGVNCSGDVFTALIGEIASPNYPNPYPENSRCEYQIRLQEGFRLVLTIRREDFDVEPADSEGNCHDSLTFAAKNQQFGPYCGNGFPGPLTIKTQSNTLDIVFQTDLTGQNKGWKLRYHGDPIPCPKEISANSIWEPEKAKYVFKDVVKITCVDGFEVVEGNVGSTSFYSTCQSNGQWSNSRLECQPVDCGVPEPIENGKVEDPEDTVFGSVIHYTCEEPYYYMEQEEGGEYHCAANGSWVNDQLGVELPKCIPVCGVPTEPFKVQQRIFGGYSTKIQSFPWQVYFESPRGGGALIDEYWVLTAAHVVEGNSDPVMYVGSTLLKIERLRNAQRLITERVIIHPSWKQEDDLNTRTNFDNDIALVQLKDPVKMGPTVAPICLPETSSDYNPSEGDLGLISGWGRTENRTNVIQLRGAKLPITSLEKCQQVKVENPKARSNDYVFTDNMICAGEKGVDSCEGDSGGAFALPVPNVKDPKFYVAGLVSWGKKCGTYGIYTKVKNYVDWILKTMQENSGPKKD
Protocol: ELISA assays were performed with purified rat C1s immobilized on micro-titer plates and increasing dilutions of IPN003 or M81.

[4] = target: T3, purified human activated C1s protein, …; assay: kinetic binding measurement, method not stated; lower end of the printed KD range, native human C1s
[5] = target: T3, purified human activated C1s protein, …; assay: competition ELISA, plate-coated human C1s; competitor biotin-labeled M81 at 0.5E-9 M; competition with biotin-labeled M81 (0.5E-9 M), plate-coated native human C1s
Protocol: To determine if IPN003 could compete binding of M81 to human C1s, competition assays were performed, in which biotin-labeled M81 (final concentration 0.5E-9 M) was incubated with increasing concentrations of unlabeled antibodies in wells coated with human C1s.

binding result (C2): no binding (tested: about 2e-7 M)
binding result (C1r): no binding (tested: about 2e-7 M)
EC50 (read off the curve) [1]: ~0.3 nM
Kd [2]: 2.04 nM
koff [2]: 0.000658 s⁻¹
kon [2]: 323000 M⁻¹ s⁻¹
Kd (Inactive-C1s): 1.58 nM
koff (Inactive-C1s): 0.000553 s⁻¹
kon (Inactive-C1s): 356000 M⁻¹ s⁻¹
koff [3]: 0.000553 s⁻¹
kon [3]: 356000 M⁻¹ s⁻¹
Kd (purified rat C1s): 0.2 nM
Kd [4]: 1.58 to 2.04 nM
IC50 [5]: 0.33 nM
B1: Anti-C1s monoclonal antibody IPN003 (antibody, V domains shown)
VH: EVMLVESGGALVKPGGSLKLSCAASGFTFSNYAMSWVRQIPEKRLEWVATISSGGSHTYYLDSVKGRFTISRDNARDTLYLQMSSLRSEDTALYYCARLFTGYAMDYWGQGTSVTVSS
VL: QIVLTQSPAIMSASLGERVTMTCTASSSVSSSYLHWYQQKPGSSPKLWIYSTSNLASGVPARFSGSGSGTFYSLTISSMEAEDDATYYCHQYYRLPPITFGAGTKLELK
notes: Mouse monoclonal antibody from an NZBW hybridoma; Biotin-labeled in some assays; also called IPN-M34; M34
